# Assay results reported in the Human Domainome abundance scans (Beltran et al. 2025).
# ± gives the uncertainty stated by the source.
# B1: Far upstream element-binding protein 1, residues 184 to 257; numbered along this chain, Q96AE4 (parent)
# chain: GNAVQEIMIPASKAGLVIGKGGETIKQLQERAGVKMVMIQDGPQNTGADKPLRITGDPYKVQQAKEMVLELIRD
# Variants of: B1
# Test: abundance fitness (aPCA) (normalised: wild type 0, dead -1); higher = more abundant; growth selection in yeast, the domain comes from the species named
# Details: Homo sapiens
row,Variant,abundance fitness
1,GNAVQEIMIPASKAGLVIGKGGETIKQLQERAGVKMVMIQDGPQNTGADKPLRITGDPYKVQRAKEMVLELIRD [Q63R],-0.026 ± 0.026
2,GNAVQEIMIPASKAGLVIGKGGETIKQLQERAGVKMVMIQDGPQNTGADKPLRITGDPYKVQSAKEMVLELIRD [Q63S],-0.061 ± 0.03
3,GNAVQEIMIPASKAGLVIGKGGETIKQLQERAGVKMVMIQDGPQNTGADKPLRITGDPYKVQVAKEMVLELIRD [Q63V],-0.038 ± 0.031
4,GNAVQEIMIPASKAGLVIGKGGETIKQLQERAGVKMVMIQDGPQNTGADKPLRITGDPYWVQQAKEMVLELIRD [K60W],-0.314 ± 0.032
5,GNAVQEIMIPASKAGLVIGKGGETIKQLQERAGVKMVMIQDGPQNTGADKPLRITGDPYMVQQAKEMVLELIRD [K60M],-0.118 ± 0.038
6,GNAVQEIMIPASKAGLVIGKGGETIKQLQERAGVKMVMIQDGPQNTGADKPLRITGDPYTVQQAKEMVLELIRD [K60T],-0.278 ± 0.036
7,GNAVQEIMIPASKAGLVIGKGGETIKQLQERAGVKMVMIQDGPQNTGADKPLRITGDPYRVQQAKEMVLELIRD [K60R],-0.052 ± 0.026
8,GNAVQEIMIPASKAGLVIGKGGETIKQLQERAGVKMVMIQDGPQNTGADKPLRITGDPYLVQQAKEMVLELIRD [K60L],-0.065 ± 0.028
9,GNAVQEIMIPASKAGLVIGKGGETIKQLQERAGVKMVMIQDGPQNTGADKPLRITGDPYIVQQAKEMVLELIRD [K60I],-0.653 ± 0.072
10,GNAVQEIMIPASKAGLVIGKGGETIKQLQERAGVKMVMIQDGPQNTGADKPLRITGDPYNVQQAKEMVLELIRD [K60N],0.029 ± 0.047
11,GNAVQEIMIPASKAGLVIGKGGETIKQLQERAGVKMVMIQDGPQNTGADKPLRITGDPYFVQQAKEMVLELIRD [K60F],-0.277 ± 0.047
12,GNAVQEIMIPASKAGLVIGKGGETIKQLQERAGVKMVMIQDGPQNTGADKPLRITGDPYDVQQAKEMVLELIRD [K60D],-0.164 ± 0.041
13,GNAVQEIMIPASKAGLVIGKGGETIKQLQERAGVKMVMIQDGPQNTGADKPLRITGDPYHVQQAKEMVLELIRD [K60H],-0.01 ± 0.047
14,GNAVQEIMIPASKAGLVIGKGGETIKQLQERAGVKMVMIQDGPQNTGADKPLRITGDPYYVQQAKEMVLELIRD [K60Y],-0.233 ± 0.056
15,GNAVQEIMIPASKAGLVIGKGGETIKQLQERAGVKMVMIQDGPQNTGADKPLRITGDPYGVQQAKEMVLELIRD [K60G],-0.086 ± 0.026
16,GNAVQEIMIPASKAGLVIGKGGETIKQLQERAGVKMVMIQDGPQNTGADKPLRITGDPYPVQQAKEMVLELIRD [K60P],-0.179 ± 0.033
17,GNAVQEIMIPASKAGLVIGKGGETIKQLQERAGVKMVMIQDGPQNTGADKPLRITGDPYVVQQAKEMVLELIRD [K60V],-0.581 ± 0.033
18,GNAVQEIMIPASKAGLVIGKGGETIKQLQERAGVKMVMIQDGPQNTGADKPLRITGDPYQVQQAKEMVLELIRD [K60Q],-0.037 ± 0.038
19,GNAVQEIMIPASKAGLVIGKGGETIKQLQERAGVKMVMIQDGPQNTGADKPLRITGDPYEVQQAKEMVLELIRD [K60E],-0.187 ± 0.033

row,Variant,abundance fitness
1,GNAVQEIMIPASKAGLVIGKGGETIKQLQERAGVKMVMIQDGPQNTGADKPLRITGDPYKNQQAKEMVLELIRD [V61N],-0.764 ± 0.066
2,GNAVQEIMIPASKAGLVIGKGGETIKQLQERAGVKMVMIQDGPQNTGADKPLRITGDPYKLQQAKEMVLELIRD [V61L],-0.286 ± 0.031
3,GNAVQEIMIPASKAGLVIGKGGETIKQLQERAGVKMVMIQDGPQNTGADKPLRITGDPYKPQQAKEMVLELIRD [V61P],-0.758 ± 0.044
4,GNAVQEIMIPASKAGLVIGKGGETIKQLQERAGVKMVMIQDGPQNTGADKPLRITGDPYKWQQAKEMVLELIRD [V61W],-1.17 ± 0.077
5,GNAVQEIMIPASKAGLVIGKGGETIKQLQERAGVKMVMIQDGPQNTGADKPLRITGDPYKRQQAKEMVLELIRD [V61R],-0.672 ± 0.032
6,GNAVQEIMIPASKAGLVIGKGGETIKQLQERAGVKMVMIQDGPQNTGADKPLRITGDPYKIQQAKEMVLELIRD [V61I],-0.091 ± 0.05
7,GNAVQEIMIPASKAGLVIGKGGETIKQLQERAGVKMVMIQDGPQNTGADKPLRITGDPYKMQQAKEMVLELIRD [V61M],-0.236 ± 0.048
8,GNAVQEIMIPASKAGLVIGKGGETIKQLQERAGVKMVMIQDGPQNTGADKPLRITGDPYKCQQAKEMVLELIRD [V61C],-0.062 ± 0.042
9,GNAVQEIMIPASKAGLVIGKGGETIKQLQERAGVKMVMIQDGPQNTGADKPLRITGDPYKEQQAKEMVLELIRD [V61E],-0.787 ± 0.049
10,GNAVQEIMIPASKAGLVIGKGGETIKQLQERAGVKMVMIQDGPQNTGADKPLRITGDPYKAQQAKEMVLELIRD [V61A],-0.22 ± 0.031
11,GNAVQEIMIPASKAGLVIGKGGETIKQLQERAGVKMVMIQDGPQNTGADKPLRITGDPYKTQQAKEMVLELIRD [V61T],-0.154 ± 0.034
12,GNAVQEIMIPASKAGLVIGKGGETIKQLQERAGVKMVMIQDGPQNTGADKPLRITGDPYKKQQAKEMVLELIRD [V61K],-0.847 ± 0.06
13,GNAVQEIMIPASKAGLVIGKGGETIKQLQERAGVKMVMIQDGPQNTGADKPLRITGDPYKDQQAKEMVLELIRD [V61D],-0.881 ± 0.073
14,GNAVQEIMIPASKAGLVIGKGGETIKQLQERAGVKMVMIQDGPQNTGADKPLRITGDPYKQQQAKEMVLELIRD [V61Q],-0.528 ± 0.046
15,GNAVQEIMIPASKAGLVIGKGGETIKQLQERAGVKMVMIQDGPQNTGADKPLRITGDPYKHQQAKEMVLELIRD [V61H],-0.814 ± 0.07
16,GNAVQEIMIPASKAGLVIGKGGETIKQLQERAGVKMVMIQDGPQNTGADKPLRITGDPYKGQQAKEMVLELIRD [V61G],-0.627 ± 0.03
17,GNAVQEIMIPASKAGLVIGKGGETIKQLQERAGVKMVMIQDGPQNTGADKPLRITGDPYKSQQAKEMVLELIRD [V61S],-0.427 ± 0.033
18,GNAVQEIMIPASKAGLVIGKGGETIKQLQERAGVKMVMIQDGPQNTGADKPLRITGDPYKFQQAKEMVLELIRD [V61F],-0.599 ± 0.063
